The text below walks through data of article PMC4162605.

The test system of the series is P49302. In words: […] (DSC); […] (40 mM tris, pH 8.0, 0.5 M ([…]; 1 mg/mL; […]) dissociation. The conditions noted are these: other: differential scanning calorimetry (DSC). A general note: Differential scanning calorimetry records heat flow against a reference as temperature is scanned.

For the substance “unmodified murine polyomavirus VP1 capsomere, as used for DSC”, the dHm of capsomere dissociation (first DSC endotherm) was found to be 87.6 kcal/mol.
